The experiment has as its target CysLTR2-V2(A)6 L129Q (GFP10 fusion) (UniProt Q9NS75). Briefly: FRET or BRET; BRET^2 saturation-binding in live HEK293T cells: 5 ng β-arrestin2-RLuc3 and 0-200 ng receptor-GFP10 DNA per well; unstimulated, or WT with 1 μM LTD4 for 10 min at RT; BRET^2 ratio against normalized GFP10 fluorescence, one-site fit with shared Bmax; constitutive activity from Bmax/Kd, normalized to the fully LTD4-stimulated WT receptor.
Chain of UniProt Q9NS75 (Q9NS75 other isoform, or with tags, fused parts or gaps L129Q | L129Q): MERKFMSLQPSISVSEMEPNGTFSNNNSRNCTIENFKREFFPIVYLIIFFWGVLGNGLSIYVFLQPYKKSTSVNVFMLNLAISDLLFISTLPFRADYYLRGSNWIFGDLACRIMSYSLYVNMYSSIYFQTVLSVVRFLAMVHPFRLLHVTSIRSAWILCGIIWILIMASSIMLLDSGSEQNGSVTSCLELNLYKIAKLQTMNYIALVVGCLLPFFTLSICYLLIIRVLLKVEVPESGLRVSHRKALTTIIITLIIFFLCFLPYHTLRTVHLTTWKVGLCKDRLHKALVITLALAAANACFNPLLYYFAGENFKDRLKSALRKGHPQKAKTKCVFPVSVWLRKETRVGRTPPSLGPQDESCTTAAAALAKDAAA

For the substance “β-arrestin2-RLuc3 (from UniProt P32121 1-409) (natural protein)”, the constitutive activity of β-arrestin recruitment (% of LTD4-stimulated WT receptor) came out at 17.8%.

These data come from paper PMC7948404.
